Experimental data reported in EP4796129A1 (Celltrion, Inc., dated 2025).

Key:
[1] = target: T1, recombinant human Nectin-1 (human, UniProt Q15223 31-334, limits assumed); assay: ELISA
T1 construct: Recombinant protein; construct not described
T1 sequence (looked up): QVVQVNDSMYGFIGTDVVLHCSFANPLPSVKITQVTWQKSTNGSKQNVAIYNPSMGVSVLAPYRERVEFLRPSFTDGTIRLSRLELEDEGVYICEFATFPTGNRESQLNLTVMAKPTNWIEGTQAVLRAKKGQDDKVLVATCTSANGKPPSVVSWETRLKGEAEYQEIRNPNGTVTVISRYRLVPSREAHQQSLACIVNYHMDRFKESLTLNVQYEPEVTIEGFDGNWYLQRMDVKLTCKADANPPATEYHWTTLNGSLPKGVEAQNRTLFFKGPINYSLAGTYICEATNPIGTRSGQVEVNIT

[2] = target: T2, recombinant human Nectin-2 (human, UniProt Q92692 32-360, limits assumed); assay: ELISA
T2 construct: Recombinant protein; construct not described
T2 sequence (looked up): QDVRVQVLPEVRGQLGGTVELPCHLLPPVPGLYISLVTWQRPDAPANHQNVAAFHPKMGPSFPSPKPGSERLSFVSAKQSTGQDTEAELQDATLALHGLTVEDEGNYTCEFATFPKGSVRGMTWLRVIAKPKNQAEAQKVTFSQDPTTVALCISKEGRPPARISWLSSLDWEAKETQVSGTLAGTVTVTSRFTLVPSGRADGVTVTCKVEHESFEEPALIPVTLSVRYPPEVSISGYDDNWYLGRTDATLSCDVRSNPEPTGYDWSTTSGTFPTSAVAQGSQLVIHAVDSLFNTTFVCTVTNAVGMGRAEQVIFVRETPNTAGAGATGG

[3] = target: T3, recombinant human Nectin-3 (human, UniProt Q9NQS3 58-404, limits assumed); assay: ELISA
T3 construct: Recombinant protein; construct not described

[4] = target: T4, recombinant human Nectin-4 protein (human, UniProt Q96NY8 32-349); assay: ELISA on recombinant protein
T4 construct: Recombinant protein; construct not described
T4 sequence (looked up): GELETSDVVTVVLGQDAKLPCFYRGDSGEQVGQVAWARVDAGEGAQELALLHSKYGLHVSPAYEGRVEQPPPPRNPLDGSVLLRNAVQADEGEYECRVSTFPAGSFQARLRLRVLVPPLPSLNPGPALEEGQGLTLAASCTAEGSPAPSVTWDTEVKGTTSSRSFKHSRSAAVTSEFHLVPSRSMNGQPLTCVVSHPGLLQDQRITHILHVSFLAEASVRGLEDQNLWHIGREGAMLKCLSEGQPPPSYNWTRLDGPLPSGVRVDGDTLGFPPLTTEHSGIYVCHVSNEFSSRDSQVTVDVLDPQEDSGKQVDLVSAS

[5] = target: T5, recombinant rat Nectin-4 protein (rat, UniProt D3ZET1 31-348); assay: ELISA on recombinant protein
T5 construct: Recombinant protein; construct not described
T5 sequence: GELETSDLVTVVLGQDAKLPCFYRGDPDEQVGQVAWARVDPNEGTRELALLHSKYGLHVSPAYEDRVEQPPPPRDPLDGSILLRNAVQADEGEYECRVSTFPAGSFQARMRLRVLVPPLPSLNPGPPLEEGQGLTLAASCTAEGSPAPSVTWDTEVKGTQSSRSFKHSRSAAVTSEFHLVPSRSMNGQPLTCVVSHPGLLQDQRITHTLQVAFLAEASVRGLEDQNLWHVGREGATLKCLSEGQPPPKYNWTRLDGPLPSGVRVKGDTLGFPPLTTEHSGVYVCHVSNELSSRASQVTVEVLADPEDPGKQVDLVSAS

[6] = target: T6, recombinant cynomolgus monkey Nectin-4 protein (cynomolgus monkey, UniProt A0A2K5WES1 32-349); assay: ELISA on recombinant protein
T6 construct: Recombinant protein; construct not described; also called cynomolgus Nectin-4
T6 sequence: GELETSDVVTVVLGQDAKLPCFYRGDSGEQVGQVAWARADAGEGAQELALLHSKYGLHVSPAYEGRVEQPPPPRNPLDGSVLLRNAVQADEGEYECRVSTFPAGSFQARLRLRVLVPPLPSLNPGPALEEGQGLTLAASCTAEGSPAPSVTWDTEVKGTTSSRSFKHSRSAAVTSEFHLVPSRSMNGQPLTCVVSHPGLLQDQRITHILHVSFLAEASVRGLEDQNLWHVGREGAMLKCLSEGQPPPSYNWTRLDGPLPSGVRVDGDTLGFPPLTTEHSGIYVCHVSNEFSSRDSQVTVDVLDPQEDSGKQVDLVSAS

[7] = target: T4, recombinant human Nectin-4 protein; assay: BLI, antibody as loading sample
[8] = target: T5, recombinant rat Nectin-4 protein; assay: BLI, antibody as loading sample
[9] = target: T6, recombinant cynomolgus monkey Nectin-4 …; assay: BLI, antibody as loading sample

T3 sequence (Q9NQS3 58-404 limits assumed): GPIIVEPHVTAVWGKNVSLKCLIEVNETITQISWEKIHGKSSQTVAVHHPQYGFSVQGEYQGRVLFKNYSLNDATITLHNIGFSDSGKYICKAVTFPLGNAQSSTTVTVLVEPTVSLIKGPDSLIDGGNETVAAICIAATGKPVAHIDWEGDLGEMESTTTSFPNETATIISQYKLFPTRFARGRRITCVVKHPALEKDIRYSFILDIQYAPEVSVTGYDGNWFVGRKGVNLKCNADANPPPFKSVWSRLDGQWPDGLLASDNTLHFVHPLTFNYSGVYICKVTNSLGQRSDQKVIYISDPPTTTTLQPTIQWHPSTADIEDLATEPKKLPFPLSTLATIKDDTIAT

B1: Enfortumab-PBX-7016 ADC (antibody, V domains shown)
VH: EVQLVESGGGLVQPGGSLRLSCAASGFTFSSYNMNWVRQAPGKGLEWVSYISSSSSTIYYADSVKGRFTISRDNAKNSLSLQMNSLRDEDTAVYYCARAYYYGMDVWGQGTTVTVSS
VL: DIQMTQSPSSVSASVGDRVTITCRASQGISGWLAWYQQKPGKAPKFLIYAASTLQSGVPSRFSGSGSGTDFTLTISSLQPEDFATYYCQQANSFPPTFGGGTKVEIKR
modifications: mc-GGFG-PBX-7016 linker-payload on cysteine thiols freed by TCEP reduction of the disulfides; positions not given
binding result [1]: no binding
binding result [2]: no binding
binding result [3]: no binding
EC50 [4]: 8.31 ng/mL
EC50 [5]: 9.88 ng/mL
EC50 [6]: 7.94 ng/mL
Kd [7]: 2.89 nM
Response [7]: 0.621
Kd [8]: 3.2 nM
Response [8]: 0.511
Kd [9]: 1.78 nM
Response [9]: 0.643

B2: Enfortumab mAb (antibody, human IgG1, kappa, V domains shown)
VH: EVQLVESGGGLVQPGGSLRLSCAASGFTFSSYNMNWVRQAPGKGLEWVSYISSSSSTIYYADSVKGRFTISRDNAKNSLSLQMNSLRDEDTAVYYCARAYYYGMDVWGQGTTVTVSS
VL: DIQMTQSPSSVSASVGDRVTITCRASQGISGWLAWYQQKPGKAPKFLIYAASTLQSGVPSRFSGSGSGTDFTLTISSLQPEDFATYYCQQANSFPPTFGGGTKVEIKR
notes: Naked antibody (source: Abinvivo); also called anti-Nectin-4 antibody (Enfortumab); anti-Nectin4 mAb
binding result [1]: no binding
binding result [2]: no binding
binding result [3]: no binding
EC50 [4]: 8.38 ng/mL
EC50 [5]: 9.63 ng/mL
EC50 [6]: 8.43 ng/mL
Kd [7]: 5.02 nM
Response [7]: 0.681
koff [7]: 0.00136 s⁻¹
kon [7]: 271000 M⁻¹ s⁻¹
Kd [8]: 3.96 nM
Response [8]: 0.606
koff [8]: 0.00149 s⁻¹
kon [8]: 376000 M⁻¹ s⁻¹
Kd [9]: 6.05 nM
Response [9]: 0.67
koff [9]: 0.00191 s⁻¹
kon [9]: 316000 M⁻¹ s⁻¹
